Values quoted from earlier work in publication PMC12612446.

Biological target: HER2 (Homo sapiens) (UniProt P04626)

**Q.** Which Kd does the source give for trastuzumab here?
**A.** 0.58 nM
